Earlier results, collected in publication PMC4426885.

Key:
vinculin (Homo sapiens) = vinculin (Homo sapiens) (UniProt P18206)
[1] = biological target: vinculin D1 (Homo sapiens) (UniProt P18206)
[2] = biological target: vinculin tail (Homo sapiens) (UniProt P18206)

Substance	Kd (vinculin (Homo sapiens)) [nM]	Kd [1] [nM]	Kd [2] [nM]
alpha-actinin peptide vinculin-binding site (from UniProt P12814)	2	2	–
vinculin head (from UniProt P18206)	–	–	< 1
